Measured values reported in publication PMC6446880.

Target: T1, IRF3 K359A (IRF3 (K359A)-his) (UniProt P70671 1-419, K359A)
T1 sequence: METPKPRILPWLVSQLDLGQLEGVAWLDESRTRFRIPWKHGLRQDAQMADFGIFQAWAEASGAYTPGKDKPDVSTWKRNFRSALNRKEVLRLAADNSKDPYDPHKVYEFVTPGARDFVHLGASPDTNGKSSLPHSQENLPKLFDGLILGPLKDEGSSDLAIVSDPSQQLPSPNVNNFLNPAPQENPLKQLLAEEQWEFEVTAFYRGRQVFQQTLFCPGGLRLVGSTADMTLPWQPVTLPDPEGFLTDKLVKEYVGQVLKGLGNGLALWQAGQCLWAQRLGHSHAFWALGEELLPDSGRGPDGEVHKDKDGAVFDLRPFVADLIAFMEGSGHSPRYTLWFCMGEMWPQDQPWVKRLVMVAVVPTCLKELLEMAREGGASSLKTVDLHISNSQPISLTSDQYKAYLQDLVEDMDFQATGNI
Experiment: EMSA

B1: IFN-β (Ifnb) promoter probe (dsDNA)
DNA 1: GAAAACTGAAAGGGAGAACTGAAAGT
DNA 2: ACTTTCAGTTCTCCCTTTCAGTTTTC
B1: binds.

B2: IFN-α (Ifna4) promoter probe (dsDNA)
DNA 1: GAAAGTGAAAAGAGAATTGGAAAGC
DNA 2: GCTTTCCAATTCTCTTTTCACTTTC
B2: binds.
